Data reported in patent US7214663B2, “Tripeptide prodrug compounds” (Medarex, Inc., priority 2001, dated 2007).

Legend:
[1] = Metabolism and clearance of Suc-Leu-Ala-Leu-Dox in mice (plasma, urine); assay type: in vivo, mouse; conditions: after single intravenous 117 mg/kg Suc-Leu-Ala-Leu-Dox
Experimental: Plasma samples of 100 μl were transferred to microcentrifuge tubes (1.5 mL) and an internal standard of daunorubicin (20 μL at 0.5 mg/ml) was added together with acetonitrile (400 μl). The tubes were capped and briefly vortexed followed by centrifugation at 14,000 rpm. 420 μl from each tube was removed and dried in vacuo. Each sample was reconstituted in 65 μl 20 mM aqueous ammonium formate (AF) pH 4.5 buffer containing acetonitrile (20%) prior to analysis by reverse phase liquid chromatography in combination with tandem mass spectrometry (LC MS/MS).
Urine was collected at 2 and 24 hours post administration from pairs of mice in metabolic cages. Urine samples were diluted with AF buffer containing acetonitrile (20%) to give a target analyte concentration within the practical range of the LC MS/MS assay. 30 μl of each diluted sample was placed in a micro centrifuge tube (1.5 ml) and an internal standard of daunorubicin (20 μL at 0.5 mg/ml) was added together with 50 μl of AF buffer containing acetonitrile (20%). Each sample was then analyzed by LC MS/MS.
An Agilent HP1100 HPLC with DAD detector and Chemstation software was coupled to a PE Sciex API 365 mass spectrometer with an electrospray ion source. HPLC was performed on a TSK-Gel Super ODS, […], 4.6×50 mm (TosoHaas) reversed phase column equipped with a […] C18 guard disc (Higgins Analytical) and stainless steel frit (Upchurch Scientific). Chromatography was performed at room temperature. The flow rate was 0.5 ml/min. Injection volume was 50 μl. Gradient elution was performed using a mobile phase of AF buffer with increasing amounts of acetonitrile. The API 365 was operated at 365° C. in a multiple reaction monitoring mode, set to monitor specific analyte parent-daughter ion pairs. Integration of chromatograms was performed by MacQuan software (PE Sciex) and quantitation of each analyte obtained by comparison to previously obtained calibration curves. Daunorubicin was used as an internal standard in all cases.

normal ICR mice = experiment: Single dose Maximum Tolerated Dose (SD-MTD) study, 49 days, ICR mice (Examples 5 and 6)
Experimental: In a second single dose Maximum Tolerated Dose (SD-MTD) study, groups of five normal ICR mice were administered intravenous bolus doses of Suc-Leu-Ala-Leu-Dox. The mice were observed daily for 49 days and body weights measured twice weekly.
In a second single dose Maximum Tolerated Dose (SD-MTD) study, groups of five normal ICR mice were administered intravenous bolus doses of Suc-Leu-Ala-Gly-Dox. The mice were observed daily for 49 days and body weights measured twice weekly.

Namalwa cells (CD10pos) = experiment: cells; assay type: cell-based, human; conditions: 24 hours, 3H-thymidine
Experimental: In addition to LNCaP, a number of B-cell lines, such as Ramos and Namalwa cells express CD10 (CD10^pos cells).
Suspension cells, BALL-1, Ramos and Namalwa cells were cultured in RPMI media containing 10% heat inactivated fetal calf serum (FCS). On the day of the study, the cells were collected, washed and resuspended at a concentration of 0.5×10^6 cells/ml in RPMI containing 10% FCS. 100 μl of cell suspension was added to 96 well plates. […] Finally 10 μl of a 100 μCi/ml ^3H-thymidine was added per well and the plates were incubated for 24 hours. The plates were harvested using a 96 well Harvester (Packard Instruments) and counted on a Packard Top Count counter. Four parameter logistic curves were fitted to the ^3H-thymidine incorporation as a function of drug molarity using Prism software to determine IC50 values.

[2] = system: purified Porcine Kidney CD10; experiment: Hydrolysis by purified CD10; assay type: biochemical
Experimental: Reaction products were analyzed by HPLC with fluorescence detection. Rates were essentially linear over the incubation period. The observed product was Leu-doxorubicin.

[3] = Repeat-dose tolerability / repeat dose MTD in tumor bearing mice; assay type: in vivo, mouse; conditions: mouse, in vivo, intravenous, five doses, based on efficacy study in Example 12
tumor-bearing nude mice = experiment: as above; assay type: in vivo, mouse

COc1cccc2c1C(=O)c1c(O)c3c(c(O)c1C2=O)C[C@@](O)(C(=O)CO)C[C@@H]3O[C@H]1C[C@H](NC(=O)[C@H](CC(C)C)NC(=O)[C@H](C)NC(=O)[C@H](CC(C)C)NC(=O)CCC(=O)O)[C@H](O)[C@H](C)O1 [Suc-Leu-Ala-Leu-Dox]
Plasma 1 hr, percent of administered dose [1]: 1.49% | Urine 2 hr, percent of administered dose [1]: 9.31% | Urine 24 hr, percent of administered dose [1]: 2.11% | dose excreted at 2 h ([1]; female, mouse, in vivo, read-out: Urine 2 hr, percent of administered dose): 9.31% | acute toxicity, within 24 hours (normal ICR mice; any dose level): no acute toxicity | SD-MTD (mg/kg Dox =) (normal ICR mice; doxorubicin equivalent, intravenous bolus, ICR mice, Day 49): 42 mg/kg Dox = | dose groups with toxicity (partial hind-end paralysis, body weight loss >20%) (normal ICR mice; single intravenous bolus, 49 days): ≥ 94 mg/kg | IC50 (Namalwa cells (CD10pos)): 2270 nM | % hydrolysis/10 hr ([2]; 12.5 μg/mL, 37° C., pH 7.4, up to 10 hr): 8.3% | Fraction hydrolyzed relative to standard ([2]; standard Suc-βAla-Leu-Ala-Leu-Dox): 0.75 | MTD at 60 day [3]: ~52 mg/kg | acute signs of toxicity following repeat administration (tumor-bearing nude mice; 52 or 63 mg/kg every 5 days for five doses): no acute signs of toxicity | body weight loss, % of the initial weight (tumor-bearing nude mice; 52 or 63 mg/kg intravenously every 5 days for five doses, 60-day observation): less than 5% | Optimal Efficacy Repeat Dose (mg/kg), value in parentheses (doxorubicin equivalent dose) (tumor-bearing nude mice; Table 11, five doses at five day or 1 week intervals): 38 mg/kg | Optimal Efficacy Repeat Dose (tumor-bearing nude mice; Table 11, five doses at five day or 1 week intervals, tumor bearing mice, 60 days): 63 mg/kg
